According to patent US20250197496A1 (EVOLVELMMUNE THERAPEUTICS, published 2025):
Where a chain is given by its changes, count along the chain named. Blank lines part the entries; values can stand above or below the binder they belong to.

Legend:
[1] = molecular target: T1, Human ULBP2 (recombinant) (human, UniProt Q9BZM5 26-217); assay: SPR, biotinylated antigen on SA chip
T1 construct: bought (R&D Systems) as ULBP2-Fc or ULBP2-His; also called recombinant ULBP2
T1 sequence: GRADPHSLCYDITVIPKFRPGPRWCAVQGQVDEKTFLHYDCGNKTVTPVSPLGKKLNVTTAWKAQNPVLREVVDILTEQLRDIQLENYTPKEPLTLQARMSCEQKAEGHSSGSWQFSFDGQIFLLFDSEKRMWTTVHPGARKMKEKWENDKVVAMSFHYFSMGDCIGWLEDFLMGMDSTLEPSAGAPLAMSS
Description: Surface plasmon resonance (SPR) was performed on the Biacore 8K+ (Cytiva). Biotin labelled proteins were captured using the Sensor chip SA (Cytiva). […] The association contact and dissociation time are 60-120 seconds and 120-420 seconds respectively. The chip surface is regenerated by injecting 10 mM glycine, pH 1.5, at a flow rate of 30 μL/min for 60 seconds. The kinetic and affinity constants are determined by fitting the data to a 1:1 binding model using the Biacore insight evaluation software.

[2] = molecular target: T1, Human ULBP2 (recombinant); assay: BLI, antibody on AHC sensor
Description: (§1) Bio-layer interferometry (BLI) was performed on the Octet RED384 (Sartorius). […] Subsequently, dissociation was measured over 600 seconds. The kinetic and affinity constants are determined by fitting the data to a 1:1 binding model using the Octet analysis software.

Human ULBP6-His = molecular target: T2, Human ULBP6-His (human, UniProt Q5VY80 26-218, limits assumed); assay: BLI, antibody on AHC sensor
T2 construct: bought (R&D Systems), His tag; also called RAET1L
T2 sequence: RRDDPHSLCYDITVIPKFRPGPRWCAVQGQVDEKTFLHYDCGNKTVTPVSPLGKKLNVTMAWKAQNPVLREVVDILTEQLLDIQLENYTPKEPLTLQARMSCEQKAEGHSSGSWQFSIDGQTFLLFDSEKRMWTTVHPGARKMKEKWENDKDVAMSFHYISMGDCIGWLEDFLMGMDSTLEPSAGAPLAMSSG
Description: as §1

Human ULBP5-His = molecular target: T3, Human ULBP5-His (human, UniProt Q6H3X3 26-223, limits assumed); assay: BLI, antibody on AHC sensor
T3 construct: bought (R&D Systems), His tag; also called RAET1G
T3 sequence: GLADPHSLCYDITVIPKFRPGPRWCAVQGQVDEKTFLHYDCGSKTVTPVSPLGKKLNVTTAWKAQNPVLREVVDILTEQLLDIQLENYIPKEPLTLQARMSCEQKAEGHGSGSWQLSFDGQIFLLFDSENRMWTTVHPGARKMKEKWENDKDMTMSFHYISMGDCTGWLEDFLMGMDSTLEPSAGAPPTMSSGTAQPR
Description: as §1

[3] = molecular target: T4, human ULBP2 (26-216) R106L displayed on yeast (human, UniProt Q9BZM5 26-216); assay: flow cytometry on yeast displaying ULBP2; unstained control 385
T4 construct: also called Human ULBP2 R106L; ULBP2 R106L
T4 chain: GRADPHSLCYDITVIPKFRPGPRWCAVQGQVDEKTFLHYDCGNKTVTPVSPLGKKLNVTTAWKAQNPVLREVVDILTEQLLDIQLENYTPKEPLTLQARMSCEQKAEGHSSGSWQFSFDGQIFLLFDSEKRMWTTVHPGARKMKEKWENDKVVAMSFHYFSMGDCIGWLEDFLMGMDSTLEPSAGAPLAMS

[4] = molecular target: T5, human ULBP2 (26-216) displayed on yeast (human, UniProt Q9BZM5 26-216); assay: as above
T5 construct: also called Wild type; wild-type ULBP2
T5 sequence: T4 chain with L81R

[5] = molecular target: T6, human ULBP2 (26-216) V93A on yeast (human, UniProt Q9BZM5 26-216); assay: yeast display FACS, 1 nM
T6 construct: fused to V5 tag and Aga2
T6 chain: T4 chain with V68A, L81R

[6] = molecular target: T7, human ULBP2 (26-216) P73A on yeast (human, UniProt Q9BZM5 26-216); assay: yeast display FACS, 1 nM
T7 construct: fused to V5 tag and Aga2
T7 chain: T4 chain with P48A, L81R

[7] = molecular target: T8, human ULBP2 (26-216) P118A on yeast (human, UniProt Q9BZM5 26-216); assay: yeast display FACS, 1 nM
T8 construct: fused to V5 tag and Aga2
T8 chain: T4 chain with L81R, P93A

[8] = molecular target: T9, human ULBP2 (26-216) S142A on yeast (human, UniProt Q9BZM5 26-216); assay: yeast display FACS, 1 nM
T9 construct: fused to V5 tag and Aga2
T9 chain: T4 chain with L81R, S117A

Kd [1]: 0.162 nM
koff [1]: 0.000214 s⁻¹
kon [1]: 1.32e+06 M⁻¹ s⁻¹
Kd [2]: 0.532 nM
MFI [3]: 828
MFI [4]: 8030
B1: A06 (antibody, V domains shown)
VH: EVQLVQSGAEVKKPGESLKISCKGSGYAFSTSWMNWVRQMPGKGLEWMGRIYPGDGDTNYNGNFKGQVTISADKSISTAYLQWSSLKASDTAMYYCARGGELRLEAMDSWGQGTLVTVSS
VL: EIVMTQSPATLSLSPGERITLSCSASSSIHSNYLHWYQQKPGQAPRLLIYRTSNLASGIPARFSGSGSGTDFTLTISSLQPEDFAVYYCQQGFSIPFTFGQGTKLEIK
notes: humanized; also called humanized ULBP2 antibody A06; anti-ULBP2 antibody
binding result (Human ULBP6-His): no binding (tested: 250 nM (highest concentration tested))
binding result (Human ULBP5-His): no binding (tested: 250 nM (highest concentration tested))

Kd [1]: 0.22 nM
koff [1]: 0.000211 s⁻¹
kon [1]: 957000 M⁻¹ s⁻¹
Kd [2]: 0.198 nM
Kd (Human ULBP6-His): 0.456 nM
Kd (Human ULBP5-His): 0.345 nM
Gate 1 Freq. of Total [5]: 67.2%
Gate 2 Freq. of Total [5]: 0.055%
Gate 3 Freq. of Total [5]: 0.005%
Gate 1 Freq. of Total [6]: 44.4%
Gate 2 Freq. of Total [6]: 29.1%
Gate 3 Freq. of Total [6]: 1.29%
Gate 1 Freq. of Total [7]: 0.92%
Gate 2 Freq. of Total [7]: 35%
Gate 3 Freq. of Total [7]: 19.4%
Gate 1 Freq. of Total [8]: 66.9%
Gate 2 Freq. of Total [8]: 0.42%
Gate 3 Freq. of Total [8]: 0.018%
MFI [3]: 9160
MFI [4]: 5180
B2: E12 (antibody, V domains shown)
VH: QVQLVQSGAEVKKPGASVKVSCKASGYTFTNYDINWVRQAPGQGLEWMGWIYPGDGSTYYNEKFKGRVTMTRDTSTSTVYMELSSLRSEDTAVYYCARSGDYGLYYFDYWGQGTLVTVSS
VL: EIVLTQSPATLSLSPGERATLSCRASQSIGTSIHWYQQKPGQAPRLLIYFASESISGIPARFSGSGSGTDFTLTISSLEPEDFAVYYCQQSNSWPLYTFGGGTKVEIK
notes: humanized; also called humanized ULBP2 antibody E12; anti-ULBP2/5/6 antibody
